The text below walks through data of the nanobody polyreactivity screen of Harvey et al. (2022).

This data set is described as follows: yeast display, Sf9 membrane polyspecificity reagent, FACS + sequencing; frameworks hold sequencing errors. The method, boiled down:
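After 36–48 hours of galactose induction, yeast (Saccharomyces cerevisiae BJ5465) displaying a synthetic nanobody library were stained at 4 °C for 1 hour with 10% biotinylated, detergent-solubilized Sf9 membrane reagent. Streptavidin microbeads enriched the stained cells before FACS sorting into low and high (top ~1%) gates on anti-HA and streptavidin fluorescence. Each clone's polyreactivity label reflects its gate of origin.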
As to “QVQLVESGGGLVQAGGSLRLSFAASGRMFTGYAMGWYRQAHGKERELVADITSDGGTYYADSVKGRFTISRDNAKNSVYLQMNSLKPEDTAVYYCAAPRVVFGSSGEDDHWGQGTQVTVSS”, the “polyreactivity (PSR sort gate)” value is “low polyreactivity”.
The value for “QVQLVESGGGLVQAGGSLRLSFAASGRTFRYYAMGWYRQAPGKERELVAAISGRGGSTYYADSVKARFTISRDNAKNSVYLQMNRQKPEDTAVYYCAASFYSIRYDYWGQGTQVTVSS” was “high polyreactivity”; that for “QVQLVESGGGLVQAGGSLRLSFAASGRTFVLYTMGWYRQAPGKERELVAAISVGGALTYYADSVRGRFTISRDNAKNTVYLQMNSLKPEDSAVYYCAARRHSRVKYRDYWGQGTQVTVSS” was “high polyreactivity”.
Then “QVQLVESGGGLVQAGGSLRLSFAASGRTFYIYAMGLYRQDPGKEREMVAAITYGGGRTFYADSVKGRFTISRDNAKYTVYLQMNSLKPEDTAVYYCAKTDTYPRYGRGYDYWGQGTQVTVSS”, with “high polyreactivity”; and “QVQLVESGGGLVQAGGSLRLSFAASGSIFLFNAMGWYRQAPGKERELVAAITSPTARTYYADSVKGRFTISRDNAKNTVYLQMNSLKPEDTAVYYCAARYRYAYGYGRGYSWGQGTQVTVSS”, with “high polyreactivity”.
The value for “QVQLVESGGGLVQAGGSLRLSFAASGSIFYRNAMGWYRQAPGKERELVASISASGGRTYYADSVKGRFTISRDNGKNTVYLQMNSVKPEDTAFYYCNKVSPVAYWYSWGINFDYWGQGTQVTVSS” was “high polyreactivity”.
Take “QVQLVESGGGLVQAGGSLRLSFAASGSNFGPNGMGWYRQAPGKERELVARIDRIGGGTYYADSVKGRFTISRDNAKNNVYLKMNSLKPEETAVYYCAKSGSAYWHSGWSVGFDYWGQGTQVTLSS”: the “polyreactivity (PSR sort gate)” value is “low polyreactivity”.
The value for “QVQLVESGGGLVQAGGSLRLSFAASGSTFDWYVMGWYRQAPGKERELVAAINQGSGSTYYADSVKGRFTISRDNAKNTVYFQMNSLKPEDTAVYYCAADRYGAGYLYWPYDYWGQGTQVTVSS” was “low polyreactivity”; that for “QVQLVESGGGLVQAGGSLRLSFAASGSTFGVNAMGWYRQAPGKERELVAVITRSGGSTYYADSVKGRFTISRDNAKNTVYLQMNSLKPEDTAVYYCGKSGVVDWGQGTQVTVSS” was “low polyreactivity”; that for “QVQLVESGGGLVQAGGSLRLSFAASGSTFNVHAMGGYRQAPGKERELVAAITSSGGSTNYADSVKGRFTISRDTAKNSVYLQLNSLKPEDTAVYYCAADAIYFSRLNLGYDYWGQGTQVTVSS” was “low polyreactivity”.
Then “QVQLVESGGGLVQAGGSLRLSFAAYGSIFWGYAMGWYRQAPGKERELVAAISSSGGNTYYADSVKGRFTISRDNAKNTVYLQMNSLKPEDTAVYYCAATPEFYGGKITDVYSQYGYWGQGTQVTVSS”, with “low polyreactivity”.
Take “QVQLVESGGGLVQAGGSLRLSGAASGFIFAAYAMGWYRQAPGKERELVASISNGGGSTYYADSVKGRYTISRDNAKNTVYLQMNSQNPEVSAVYYCNARQYYAVTRKYYVRLDYWGQGTQVTVES”: the “polyreactivity (PSR sort gate)” value was “high polyreactivity”.
Take “QVQLVESGGGLVQAGGSLRLSGAASGGTFDYYAMGRYRQAPGKERELVAAISTSGGRTYYADSVKGRFTISRDNAKYTVYLQMNSLKPEDTAVYYCAALSPRAKYASFYYWGQGTQVTVSS”: the “polyreactivity (PSR sort gate)” value is listed as “high polyreactivity”.
Then “QVQLVESGGGLVQAGGSLRLSGAASGRIFQRYVMGWYRQAPGKERELVAAISYSGARTYYADSVKGRFTISRDNAKNTVYLQMNSLKPEDTAVYYCAARIRNWPAMDYWGQGTQETVSS”, with “high polyreactivity”; and “QVQLVESGGGLVQAGGSLRLSGAASGRTFRGNVMGWYRQAPGKEREFVAAITKSDGSTYYADSVKGRFTISRDNAKNTVYLQMNSLKPEDTAVYYCAARTARTGWPWFRYDYWGQGTQVTVSS”, with “low polyreactivity”.
Then “QVQLVESGGGLVQAGGSLRLSGAASGRTFRKYAMGWYRQAPGKERELVAAISWSGGSTYYANSVKGRFTISRDNAKNTVYLQMNSLKPEDTAVYYCAAVPVHTGSLYWGFTTGYDYWGQGTQVTVSS”, with “low polyreactivity”; and “QVQLVESGGGLVQAGGSLRLSGAASGRTFYQYAMGWYRQAPGKARELVAAISWSDGSTSYADSVKGRFTISRDNAKNTVYLQMNSLKPEDTAGYYCAKDWTGTKAIEYDYWGQGTQVTVSS”, with “low polyreactivity”.
The value for “QVQLVESGGGLVQAGGSLRLSGAASGRTLYGYAMGWYRQAPGKERELVARITGRDGSTDYADSVKGRFTISRDNAKNTVYFPMNSLKPEETAVYSCNARVRFHWYRSDYWGQGTEVTVSS” was “high polyreactivity”; that for “QVQLVESGGGLVQAGGSLRLSRAASGFIFVQNAMVWYRQAPGKERELVASLTSGGTTNYADSVKGRFTISRDNAKNTVYLQMNSLKPEDTAVYYCNARLERTPSLYLYGSWGQGTQVTESS” was “low polyreactivity”.
As to “QVQLVESGGGLVQAGGSLRLSRAASGRTFRTYAMGWYRQAPGKERELVAAITSGGNTYYADSVKGRFTISRDNAKNTVYLLMNSLKPDDTAVYYCAAAASGFSRYRSTTWGQGTQGTVSS”, the “polyreactivity (PSR sort gate)” value was “high polyreactivity”.
Then “QVQLVESGGGLVQAGGSLRLSRAASGSIFKYYAMGWYRQAPGKERELVAAITYSGGSTFYADSVKGRFTISRDNAKNTVYLQMNSLKPEDTAVYYCNKVYKSYYWGGYDWGQGTQVTVSS”, with “high polyreactivity”.
Consider “QVQLVESGGGLVQAGGSLRLSSAASGFIFIINAMGWYRQAPGKEREFVAAITGSGGSTYYADSVKGRFTISRDNAKNTVYLQMNSLKPEDTAVYYCANVGPYYSGKVYGRTYYSRYGYWGQGTQVTVSS”, for which the “polyreactivity (PSR sort gate)” value is given as “low polyreactivity”.
Then “QVQLVESGGGLVQAGGSLRLSSAASGFIFKYNAMGWYRKAPGKERELGAAITWSGGSTYYADSVKGRFTISRDNAKNTVYLQMNSLKPEDTAVYYCAARPYRTKLIYGYWGQGTHVTVSS”, with “high polyreactivity”; and “QVQLVESGGGLVQAGGSLRLSSAASGFIFPDYAMGWYRQAPGKERELVAAISFRDGSTYYADSVKGRFTISRDNAKNTVYLQMNSLKPEDTAVYFCAVRQVNWFGIGYEDDYWGQGTQVTVSS”, with “low polyreactivity”; and “QVQLVESGGGLVQAGGSLRLSSAASGFIFRGYAMGWYRQAPGKERELVAVISRSGTSTYYADSVKGRFTFSRDNAKNTVYLQMNSLKPEDTAVYYCAVLNYAGKYYYWGQGTQVTVSS”, with “high polyreactivity”.
The value for “QVQLVESGGGLVQAGGSLRLSSAASGFIFSYNAMRWYRQARGKERELVAAITYSDGGTYADSVKARFTISRDNAKNTVDLQMHSLKPEDTAVYYCARRQVLYSRDFEYDYWGQGTLVTVSS” was “low polyreactivity”.
Turning to “QVQLVESGGGLVQAGGSLRLSSAASGFIFTDYAMGWYIEAPGKEREFVAAIDWSGGNTYYADSVKGRFTISRDNAKNTVYLQMNSLKPEDTAVYYCAASGSAREYDYWGQGSQVTVSS”, the “polyreactivity (PSR sort gate)” value was “low polyreactivity”.
For “QVQLVESGGGLVQAGGSLRLSSAASGFIFVGNAMGWYRQAPGKERELVATISGADSTNYADSVKGRFTISRDNAKNTVYLQMNSLKPEDTAVYDCAKEGYSYFDGNYGPYRYDYWGQGTQVTVSS”, the “polyreactivity (PSR sort gate)” value is on record as “low polyreactivity”.
Then “QVQLVESGGGLVQAGGSLRLSSAASGFILGYNTMGWYRQAPGKESELVAAINLSGASTYYADSVKGRFTISRDNAKNTVYLQMNSLKPEDTAVYYCGVRFYSGPGGYPTTRYYYWGQGTQVTVSS”, with “high polyreactivity”; and “QVQLVESGGGLVQAGGSLRLSSAASGFTFAYYAMGWYRQAPGKERELVAAITRGGGRTFYADSVKGRFTISRDNAKNTVYLQMNSLKPEDTAVYYCAAVKDTTNSRGYGYWGQGTQVTVSS”, with “high polyreactivity”.
Then “QVQLVESGGGLVQAGGSLRLSSAASGFTFFYYAMGWYRQAPGKERELVAAISASGGSTSYADSVKGRFTISRDNAKNTVYLQMNSLKPEDTAVYYCAARVYSVRSGYYYWGQGTQVTVSS”, with “high polyreactivity”.
The value for “QVQLVESGGGLVQAGGSLRLSSAASGFTFGNNAMVWYRQAPGKEREFVATISRRGGSTYYADSVKGRFTISRDNAKNTVYLLMNSLKPEDTAVYYCAVDRAGIKFAAGYDYWGQGTQVTVSS” was “high polyreactivity”; that for “QVQLVESGGGLVQAGGSLRLSSAASGFTFPAYTMGWSRQAPGKERELVAAITSSGGNTYYADSVKGRFTISRDNAKNTVYLQMNSLKPEDTAVYYCAADWDYPYDEAVSKDIDYDYWGQGTQVTVSS” was “low polyreactivity”; that for “QVQLVESGGGLVQAGGSLRLSSAASGFTFRRYAMGWYRQAPGKERELVAAISIRGGRTYYADSVNGRFTISRDNAKNTVYLQMNSLKPEDTAVNYCAADGVYALDVESDYWGQGTQVTVSS” was “high polyreactivity”.
With “QVQLVESGGGLVQAGGSLRLSSAASGFTFSGYDMGWYRQAPGKERELVAGISSGGVSTTYADSVNGRFTISRDNAKNTVYLQMNSLKQEDTAVYYCNAEWTSFDWGQGTQVTVSS”, the “polyreactivity (PSR sort gate)” value is listed as “low polyreactivity”.
Then “QVQLVESGGGLVQAGGSLRLSSAASGFTVKYNTMGSSRQAPGKEREMVAAISWDGTSTYYADSVKGRFTISRDYAKNTVYLQMNSLKPEDTAVYYCATDAVGAWWSYLSGYGYWGQGTQVTVSS”, with “high polyreactivity”.
For the sequence “QVQLVESGGGLVQAGGSLRLSSAASGGIFWYYTMGWYRQAPGKERELVAAISWSGGRTYYADSVKGRFTISRDNAKNTVYLQMNSLKPEDTAVYYCAATFRGVLGWYHYEYWGQGTQVTVSS”, the “polyreactivity (PSR sort gate)” value was “high polyreactivity”.
Consider “QVQLVESGGGLVQAGGSLRLSSAASGIIFGGSAMGWYRQAPGKEWELVAAISRSGGSTYYADSVKGRFTISRDNPKKTVYLQMNSLKPEDTAVYYCNAVPRRKGFNYWGQGTQVTVSS”, for which the “polyreactivity (PSR sort gate)” value was “high polyreactivity”.
Then “QVQLVESGGGLVQAGGSLRLSSAASGIIFSTYAMGWYRQAPGKERELVAAITSTGSTNYADSVKGRFTISRDNAKNTVYFQMNSLKPEDTAVYYCNAALNVSGHYPNDYWGQGTQVTVSS”, with “low polyreactivity”.
Then “QVQLVESGGGLVQAGGSLRLSSAASGITFPRYAMGWYRQAPGKERELVAAITRRGGSTYYADSVKGRFTISRDNAKNTVYLQMNSLKPEDTAVYYCNTDMRYSYYLPGYDYWGQGTQVTVSS”, with “high polyreactivity”.
